Experimental findings from patent US20260209319A1 (JECHO LABORATORIES, published 2026) are described below.

Test [1] addresses T1, mesothelin (soluble, recombinant) (UniProt Q13421 296-580, limits assumed).
T1 construct: also called MSLN; soluble MSLN
Briefly: method not stated; quoted in the T cell activation example.

Test [2] deals with T2, mesothelin on the cell surface (OVCAR3, Capan-2 cells) (UniProt Q13421 296-598). Briefly: flow cytometry on OVCAR3 cells.
For test [3], the target named is T2, mesothelin on the cell surface (OVCAR3, …). Briefly: cell-based or functional assay.
The next test addresses T3, CD3 on Jurkat cells (UniProt P07766 23-207).
T3 construct: whole, on cells; Part of the TCR/CD3 complex on cells
Briefly: flow cytometry on Jurkat cells. For orientation: In flow cytometry, cells or beads pass a laser one at a time.

Test [4] has as its target T1, mesothelin (soluble, recombinant). Briefly: Octet BLI, bsAb captured on AHC biosensors, mesothelin 0-200 nM, 1:1 model.
Text: The Fe-epitope anti-human capture (AHC) biosensors from ForteBio were used for loading the testing bsAbs. […] A probe loaded with a control antibody was used as a reference sensor. […] The dissociation constants (KD) and Kₒₙ/Koff are estimated by fitting to the 1:1 binding model. The probes were regenerated for multiple rounds of measurements.
For test [5] the target is unchanged. Kind of test: cell-based or functional assay.
Test [6] shares this target. Briefly: SPR, Biacore 3000, antibody captured via an Fc antibody, mesothelin 0.625-10 nM. On the technique in general: In SPR one partner is held on a chip, and binding of the other changes the refractive index at the surface.
The target is the same in test [7]. Kind of test: SPR (Biacore 3000), antibody captured on the chip via an Fc antibody, mesothelin 0.625-10 nM [text above the curves].
Experimental: The measurement was performed by immobilizing the tested antibody and then perfusing with corresponding concentrations of mesothelin.
The target in test [8] is mesothelin on the cell surface (OVCAR3, Capan-2 cells) (UniProt Q13421 296-598). Briefly: cell-based or functional assay. The source holds these as a separate data set.

Positions count from the first letter of the chain named. In names and notes the source's numbering stands.

B1: m912-[L]-scFv^CD3 bsAb (bispecific antibody, V domains shown)
VH: QVQLQESGPGLVKPSETLSLTCTVSGGSVSSGSYYWSWIRQPPGKGLEWIGYIYYSGSTNYNPSLKSRVTISVDTSKNQFSLKLSSVTAADTAVYYCAREGKNGAFDIWGQGTMVTVSS
VL: not shown
Consider B1, for which the Kd in [1] worked out at 72 nM. In test [2], this molecule came in with an EC50 of 0.572 µg/mL. In test [3], the “EC50, T cell activation assay (Jurkat NFAT-luciferase reporter) in the presence of Capan-2 cells” value (“EC50, T cell activation assay … of Capan-2 cells” below) amounted to 6.92 µg/mL and the “EC50, T cell activation assay (Jurkat NFAT-luciferase reporter) in the presence of OVCAR3 cells” value (from here on “EC50, T cell activation assay … of OVCAR3 cells”) worked out at 6.64 µg/mL. For the same molecule, the EC50 with CD3 on Jurkat cells amounted to 0.403 µg/mL.

B2: MSLN-30-[L]-scFv^CD3 bsAb (bispecific antibody, V domains shown)
VH: B1 VH with G32R, S33D, Y34D, Y35L, E100D, G101F, K102V, N103L, G104S, A105G
VL: DIQMTQSPSSLSASVGDRVTITCRASQSISSYLNWYQQKPGKAPKLLIYAASSLQSGVPSRFSGSGSGTDFTLTISSLQPEDFATYYCQQPYDASYTFGGGTKVEIK
In turn, B2 came in with an EC50 in [2] of 0.0121 µg/mL. For the same molecule, in test [3], the “EC50, T cell activation assay … of Capan-2 cells” value was found to be 0.0117 µg/mL and the “EC50, T cell activation assay … of OVCAR3 cells” value amounted to 0.0098 µg/mL. Further, in [4], the Kd stood at 0.00171 nM, the koff was 2.44e-07 s⁻¹ and the kon worked out at 221000 M⁻¹ s⁻¹. Besides, the EC50 with CD3 on Jurkat cells came to 0.521 µg/mL.

B3: MSLN-39-[L]-scFv^CD3 bsAb (bispecific antibody, V domains shown)
VH: B1 VH with G32F, S33T, Y34D, Y35T, G101D, K102A, N103L, G104T, A105G
VL: B2 VL with I29S, S30R, S31Y, L33V, P91S
With B3, the “fold increase of the IC50 in the luciferase-based cytotoxicity assay on NCI-N87 cells at 200 ng/mL of soluble MSLN” value in test [5] stood at 27 fold. In addition, the EC50 in test [2] is 0.0124 µg/mL. Besides, in test [3], the “EC50, T cell activation assay … of Capan-2 cells” value turned out to be 0.0128 µg/mL and the “EC50, T cell activation assay … of OVCAR3 cells” value amounted to 0.0082 µg/mL. For the same molecule, in [4], the Kd stood at 0.00107 nM, the koff worked out at 4.05e-07 s⁻¹ and the kon was determined as 379000 M⁻¹ s⁻¹. Moreover, the concentration giving a half-maximal response (EC50) in the test with CD3 on Jurkat cells worked out at 0.893 µg/mL.

B4: HP4-44-[L]-scFv^CD3 bsAb (bispecific antibody, V domains shown)
VH: B1 VH with G101D, K102V, N103L, G104S, A105G
VL: B2 VL with P91S, S95F
On to B4, for which, in [5], the “fold increase of the IC50 in the luciferase-based cytotoxicity assay on NCI-N87 cells at 200 ng/mL of soluble MSLN” value was determined as 2.5 fold. Besides, the EC50 in [2] was found to be 0.0096 µg/mL. Besides, in test [3], the “EC50, T cell activation assay … of Capan-2 cells” value turned out to be 0.0105 µg/mL and the “EC50, T cell activation assay … of OVCAR3 cells” value was found to be 0.0087 µg/mL. For the same molecule, in test [4], the Kd turned out to be 2.91 nM, the koff came out at 0.000809 s⁻¹ and the kon amounted to 278000 M⁻¹ s⁻¹. In the test with CD3 on Jurkat cells, this molecule returned an EC50 of 0.636 µg/mL.

B5: MSLN-39 IgG (antibody, V domains shown)
VH: B1 VH with G32F, S33T, Y34D, Y35T, G101D, K102A, N103L, G104T, A105G
VL: B2 VL with I29S, S30R, S31Y, L33V, P91S
notes: IgG; also called MSLN-39 antibody; MSLN-39 in IgG format
As for B5, the Kd in test [6] was found to be 0.0564 nM. Moreover, in test [7], the koff amounted to 8.93e-05 s⁻¹ and the kon was 1.58e+06 M⁻¹ s⁻¹.

B6: MSLN-31-[L]-scFv^CD3 bsAb (bispecific antibody, V domains shown)
VH: B1 VH with G32F, S33T, Y34D, Y35T, E100D, G101F, K102V, N103L, G104S, A105G
VL: B2 VL
notes: IgG-[L]-scFv format; also called MSLN-31 bsAb; not shown: IgG heavy constant region (N297G, K322A), light constant region and the huOKT3-scFv with its 3xG4S linker; copies: 2 + 2
On to B6, for which, in [8], the “EC50, T cell activation assay … of Capan-2 cells” value came to 0.0156 µg/mL and the “EC50, T cell activation assay … of OVCAR3 cells” value stood at 0.0116 µg/mL. Besides, in test [4], the Kd was 0.00118 nM, the koff was found to be 3.03e-07 s⁻¹ and the kon turned out to be 258000 M⁻¹ s⁻¹.

As usually defined, the Kd is a measure of binding affinity in units of concentration. As a reminder, the EC50 is the concentration needed to bring the measured effect to its halfway point. One may read the koff as the rate constant with which the complex falls apart. The term kon denotes a measure of how fast the partners come together.
